Test results published in patent publication US7038112B2, “Fatty acid elongases” (Miami University, priority 1997, dated 2006).
Where two headings read alike, the source gives them in different places.

What was measured:
[1] = assay type: biochemical, Saccharomyces cerevisiae; settings: for (%) 20:1 acyl CoA / (%) 22:1 acyl CoA / (%) 24:1 acyl CoA / (%) 26:1 acyl CoA / (%) Total / Rate, 20:1 acyl CoA / Rate, 22:1 acyl CoA / Rate, 24:1 acyl CoA / Rate, 26:1 acyl CoA / Rate, Total: second experiment
Method: (§1) Transformed yeast cells were grown in the presence of either glucose or galactose (2% w/v) as described in Example 1. Cells were harvested by centrifugation at 5000×g for 10 min and washed with 10 ml ice cold isolation buffer (IB), which contains 80 mM Hepes-KOH, pH 7.2, 5 mM EGTA, 5 mM EDTA, 10 mM KC1, 320 mM sucrose and 2 mM DTT). Cells were then resuspended in enough IB to fill a 1.7 ml tube containing 700 μl of 0.5 μm glass beads and yeast microsomes were isolated from the cells essentially as described in Tillman, T. and Bell, R., J. Biol. Chem. 261:9144–9149 (1986). The microsomal membrane pellet was recovered by centrifugation at 252,000×g for 60 min. The pellet was rinsed by resuspending in 40 ml fresh IB and again recovered by centrifugation at 252000×g for 60 min. Microsomal pellets were resuspended in a minimal volume of IB, and the protein concentration adjusted to 2.5 μg μl^−1 by addition of IB containing 15% glycerol. Microsomes were frozen on dry ice and stored at −80° C. The protein concentration in microsomes was determined by the Bradford method (Bradford, 1976).
(§2) Fatty acid elongase activity was measured essentially as described in Hlousek-Radojcic, A. et al., Plant J. 8:803–809 (1995). Briefly, the standard elongation reaction mix contained 80 mM Hepes-KOH, pH 7.2, 20 mM MgCl2, 500 μM NADPH, 1 mM ATP, 100 μM malonyl-CoA, 10 μM CoA-SH and 15 μM radioactive acyl-CoA substrate. The radiolabeled substrate was either [1^−14C]18:1-CoA (50 uCi μmol^−1), [1^−14C]18:0-CoA (55 uCi μmol^−1), or [1^−14C]16:0-CoA (54 uCi μmol^−1). The reaction was initiated by the addition of yeast microsomes (5 μg protein) and the mixture incubated at 30° C. for the indicated period of time. The final reaction volume was 25 μl.
(§3) Methyl esters of the acyl-CoA elongation products were prepared as described in Example 1. Methyl esters were separated on reversed phase silica gel KC18 TLC plates (Whatman, […] thick), quantified by phosphorimaging, and analyzed on by ImageQuant software (Molecular Dynamics, Inc., Sunnyvale, Calif.). The detection limit for each product is about 0.001 nanomoles per min. per mg microsomal protein, depending on the phosphorimage exposure time.
(§4) Yeast cultures containing full-length EL1 in λYES and full-length EL2 in pYEUra3 were grown in the presence of galactose or glucose as described in Example 2. Microsomes were then prepared from each of the cultures and fatty acid elongation assays were carried out as described in Example 2.
(§5) In the first experiment, microsomes were prepared from galactose-induced cultures of EL1, EL2 and FAE1, and incubated with either [1-^14C] 18:0 acyl-CoA or [1-^14C] 18:1 acyl-CoA as substrate. The amounts of various reaction products synthesized after 30 minutes (min) were determined as described in Example 2.
(§6) In a second experiment, microsomes were prepared from galactose-induced and from glucose-repressed yeast cultures containing EL1 or EL2 coding sequences. The microsomal preparations were incubated with either 18:0 acyl-CoA or 18:1 acyl-CoA as substrate and the fatty acid reaction products determined as described above.

[2] = In vitro fatty acid elongation assay with yeast microsomes, 18:0 acyl-CoA substrate; assay type: biochemical, Saccharomyces cerevisiae; settings: for (%) 20:0 acyl CoA / (%) 22:0 acyl CoA / (%) 24:0 acyl CoA / (%) 26:0 acyl CoA / (%) Total / Rate, 20:0 acyl CoA / Rate, 22:0 acyl CoA / Rate, 24:0 acyl CoA / Rate, 26:0 acyl CoA / Rate, Total: second experiment
Method: as §1, §2, §3, §4, §5
as §6, with “above. […]” for “above.”

[3] = 18:1-CoA substrate, +Galactose (induced)
[4] = 18:1-CoA substrate, +Glucose (uninduced)
[5] = 18:1-CoA substrate, galactose-induced, 30 min, first experiment
[6] = 18:0-CoA substrate, +Galactose (induced)
[7] = 18:0-CoA substrate, +Glucose (uninduced)
[8] = 18:0-CoA substrate, galactose-induced, 30 min, first experiment
[9] = +Gal, standard reaction mix, average of two experiments
[10] = +Glu, standard reaction mix, one experiment
[11] = galactose-induced, −A&C (ATP and Coenzyme A omitted), average of two experiments
[12] = galactose-induced, −ATP, average of two experiments
[13] = galactose-induced, −CoA, average of two experiments

B1: EL1: Arabidopsis β-keto acyl synthase gene product (SEQ ID NO:2) expressed in yeast microsomes (protein, listed as Arabidopsis thaliana)
chain: MDRERLTAEMAFRDSSSAVIRIRRRLPDLLTSVKLKYVKLGLHNSCNVTTILFFLIILPLTGTVLVQLTGLTFDTFSELWSNQAVQLDTATRLTCLVFLSFVLTLYVANRSKPVYLVDFSCYKPEDERKISVDSFLTMTEENGSFTDDTVQFQQRISNRAGLGDETYLPRGITSTPPKLNMSEARAEAEAVMFGALDSLFEKTGIKPAEVGILIVNCSLFNPTPSLSAMIVNHYKMREDIKSYNLGGMGCSAGLISIDLANNLLKANPNSYAVVVSTENITLNWYFGNDRSMLLCNCIFRMGGAAILLSNRRQDRKKSKYSLVNVVRTHKGSDDKNYNCVYQKEDERGTIGVSLARELMSVAGDALKTNITTLGPMVLPLSEQLMFLISLVKRKMFKLKVKPYIPDFKLAFEHFCIHAGGRAVLDEVQKNLDLKDWHMEPSRMTLHRFGNTSSSSLWYEMAYTEAKGRVKAGDRLWQIAFGSGFKCNSAVWKALRPVSTEEMTGNAWAGSIDQYPVKVVQ
increase in 18:1 CoA elongation, microsomes from induced vs uninduced cells [1]: about 1.3 fold | (%) 20:1 acyl CoA [1, 3]: 100.0% | (%) 22:1 acyl CoA [1, 3]: 0.0% | (%) 24:1 acyl CoA [1, 3]: 0.0% | (%) 26:1 acyl CoA [1, 3]: 0.0% | (%) Total [1, 3]: 100.0% | Rate, 20:1 acyl CoA [1, 3]: 0.081 Nanomoles/minute/mg of microsomal protein | Rate, 22:1 acyl CoA [1, 3]: 0.000 Nanomoles/minute/mg of microsomal protein | Rate, 24:1 acyl CoA [1, 3]: 0.000 Nanomoles/minute/mg of microsomal protein | Rate, 26:1 acyl CoA [1, 3]: 0.000 Nanomoles/minute/mg of microsomal protein | Rate, Total [1, 3]: 0.081 Nanomoles/minute/mg of microsomal protein | (%) 20:1 acyl CoA [1, 4]: 100.0% | (%) 22:1 acyl CoA [1, 4]: 0.0% | (%) 24:1 acyl CoA [1, 4]: 0.0% | (%) 26:1 acyl CoA [1, 4]: 0.0% | (%) Total [1, 4]: 100.0% | Rate, 20:1 acyl CoA [1, 4]: 0.062 Nanomoles/minute/mg of microsomal protein | Rate, 22:1 acyl CoA [1, 4]: 0.000 Nanomoles/minute/mg of microsomal protein | Rate, 24:1 acyl CoA [1, 4]: 0.000 Nanomoles/minute/mg of microsomal protein | Rate, 26:1 acyl CoA [1, 4]: 0.000 Nanomoles/minute/mg of microsomal protein | Rate, Total [1, 4]: 0.062 Nanomoles/minute/mg of microsomal protein | (%) 20:1 acyl-CoA product [1, 5]: 80.8% | (%) 22:1 acyl-CoA product [1, 5]: 19.2% | (%) 24:1 acyl-CoA product [1, 5]: 0.0% | (%) 26:1 acyl-CoA product [1, 5]: 0.0% | (%) Total acyl-CoA products [1, 5]: 100.0% | Rate, 20:1 acyl-CoA product [1, 5]: 0.111 Nanomoles/minute/mg of microsomal protein | Rate, 22:1 acyl-CoA product [1, 5]: 0.026 Nanomoles/minute/mg of microsomal protein | Rate, 24:1 acyl-CoA product [1, 5]: 0.0 Nanomoles/minute/mg of microsomal protein | Rate, 26:1 acyl-CoA product [1, 5]: 0.0 Nanomoles/minute/mg of microsomal protein | Rate, Total acyl-CoA products [1, 5]: 0.137 Nanomoles/minute/mg of microsomal protein | (%) 20:0 acyl CoA [2, 6]: 55.8% | (%) 22:0 acyl CoA [2, 6]: 17.4% | (%) 24:0 acyl CoA [2, 6]: 15.3% | (%) 26:0 acyl CoA [2, 6]: 11.5% | (%) Total [2, 6]: 100.0% | Rate, 20:0 acyl CoA [2, 6]: 0.074 Nanomoles/minute/mg of microsomal protein | Rate, 22:0 acyl CoA [2, 6]: 0.023 Nanomoles/minute/mg of microsomal protein | Rate, 24:0 acyl CoA [2, 6]: 0.020 Nanomoles/minute/mg of microsomal protein | Rate, 26:0 acyl CoA [2, 6]: 0.015 Nanomoles/minute/mg of microsomal protein | Rate, Total [2, 6]: 0.133 Nanomoles/minute/mg of microsomal protein | (%) 20:0 acyl CoA [2, 7]: 100.0% | (%) 22:0 acyl CoA [2, 7]: 0.0% | (%) 24:0 acyl CoA [2, 7]: 0.0% | (%) 26:0 acyl CoA [2, 7]: 0.0% | (%) Total [2, 7]: 100.0% | Rate, 20:0 acyl CoA [2, 7]: 0.007 Nanomoles/minute/mg of microsomal protein | Rate, 22:0 acyl CoA [2, 7]: 0.000 Nanomoles/minute/mg of microsomal protein | Rate, 24:0 acyl CoA [2, 7]: 0.000 Nanomoles/minute/mg of microsomal protein | Rate, 26:0 acyl CoA [2, 7]: 0.000 Nanomoles/minute/mg of microsomal protein | Rate, Total [2, 7]: 0.007 Nanomoles/minute/mg of microsomal protein | effect of omission of ATP and/or CoA on overall amounts of VLCFAs synthesized ([2]; 18:0-CoA substrate, galactose-induced): does not have a significant effect | (%) 20:0 acyl-CoA product [2, 8]: 38.8% | (%) 22:0 acyl-CoA product [2, 8]: 21.9% | (%) 24:0 acyl-CoA product [2, 8]: 19.9% | (%) 26:0 acyl-CoA product [2, 8]: 19.4% | (%) Total acyl-CoA products [2, 8]: 100.0% | Rate, 20:0 acyl-CoA product [2, 8]: 0.084 Nanomoles/minute/mg of microsomal protein | Rate, 22:0 acyl-CoA product [2, 8]: 0.047 Nanomoles/minute/mg of microsomal protein | Rate, 24:0 acyl-CoA product [2, 8]: 0.043 Nanomoles/minute/mg of microsomal protein | Rate, 26:0 acyl-CoA product [2, 8]: 0.042 Nanomoles/minute/mg of microsomal protein | Rate, Total acyl-CoA products [2, 8]: 0.216 Nanomoles/minute/mg of microsomal protein | 20:0 product as a percent of total products formed [2, 9]: 46.2% | 22:0 product as a percent of total products formed [2, 9]: 18.7% | 24:0 product as a percent of total products formed [2, 9]: 18.1% | 26:0 product as a percent of total products formed [2, 9]: 17.1% | Total products as a percent of total products formed [2, 9]: 100.0% | 20:0 product as a percent of total products formed [2, 10]: 53.9% | 22:0 product as a percent of total products formed [2, 10]: 14.4% | 24:0 product as a percent of total products formed [2, 10]: 18.5% | 26:0 product as a percent of total products formed [2, 10]: 13.2% | Total products as a percent of total products formed [2, 10]: 100.0% | increase in overall elongase activity on induction with galactose, 18:0 acyl CoA substrate ([2]; galactose-induced vs glucose): about 19 fold | 20:0 product as a percent of total products formed [2, 11]: 41.7% | 22:0 product as a percent of total products formed [2, 11]: 19.4% | 24:0 product as a percent of total products formed [2, 11]: 16.7% | 26:0 product as a percent of total products formed [2, 11]: 22.3% | Total products as a percent of total products formed [2, 11]: 100.0% | 20:0 product as a percent of total products formed [2, 12]: 34.4% | 22:0 product as a percent of total products formed [2, 12]: 13.7% | 24:0 product as a percent of total products formed [2, 12]: 20.6% | 26:0 product as a percent of total products formed [2, 12]: 31.4% | Total products as a percent of total products formed [2, 12]: 100.0% | 20:0 product as a percent of total products formed [2, 13]: 47.8% | 22:0 product as a percent of total products formed [2, 13]: 18.0% | 24:0 product as a percent of total products formed [2, 13]: 19.1% | 26:0 product as a percent of total products formed [2, 13]: 15.2% | Total products as a percent of total products formed [2, 13]: 100.0% | 18:0-CoA elongation activity, +Glu ([2]; microsomes from glucose-grown cultures, standard reaction mix): .037 nanomoles/minute/mg of microsomal protein
